From US20160145322A1 come the findings set out here.

The experiment addresses G protein of RSV A/Long (ATCC Cat. No. VR-26), on virus (Respiratory syncytial virus A/Long) (UniProt P20895). Nature of the experiment: cell-based or functional assay.

Chain of G protein of RSV A/Long (ATCC Cat. No. VR-26), on virus (Respiratory syncytial virus A/Long) (P20895 whole entry): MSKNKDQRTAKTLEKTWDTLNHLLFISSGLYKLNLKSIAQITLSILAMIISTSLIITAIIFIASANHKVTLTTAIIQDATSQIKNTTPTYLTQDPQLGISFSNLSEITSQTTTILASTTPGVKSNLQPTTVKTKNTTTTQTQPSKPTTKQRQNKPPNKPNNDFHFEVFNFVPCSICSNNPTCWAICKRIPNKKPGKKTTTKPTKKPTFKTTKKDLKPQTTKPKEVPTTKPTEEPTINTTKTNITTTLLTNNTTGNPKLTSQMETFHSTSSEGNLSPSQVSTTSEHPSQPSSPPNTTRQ

B1: CR9505 (an antibody based on 131-2G, comprising the heavy and light chain variable region of 131-2G, as disclosed in WO 2009/055711) (antibody, from another filing, V domains shown)
VH: EVQLQQSGPELVKPGTSVKISCKASGYSFTGFTMNWVKQSHGKNLEWFGLINPFNGNTGYNQKFKGKATLTVDKSSSTAFMELLSLTSEDSAVYYCARSGKSYDYEAWFTYWGQGTLVTVSA
VL: DIVMTQTTLSLPVSLGNQASISCRSSQTIVHTNGNTYLEWYLQKPGQSPKLLIYKVSNRFSGVPDRFSGSGSGTDFILNISRVEAEDLGVYYCFQGSHVPFTFGSGTKLEIKR
As for B1, the Neutralization IC50, plaque reduction assay, RSV A/Long is 0.018 µg/mL.
